According to publication PMC11516162, “A Novel Antigen Design Strategy to Isolate Single‐Domain Antibodies that Target Human Nav1.7 and Reduce Pain in Animal Models” (Advanced Science, 2024):
Where two headings read alike, the source gives them in different places.

Tests used:
[1] = target: Mouse FC5-DIE3IR (llama | mouse); assay: SPR; Biacore T200, 25 °C, HBS-EP+ (10 mM HEPES pH 7.4, 150 mM NaCl, 3 mM EDTA, 0.05% P20); FC5-DIE3IR (human, mouse, rat) and FC5 amine coupled (300-400 RU) on CM5; SEC-purified monomeric VHH DI-D flowed over at 312 nM to 5 µM, single cycle kinetics; KD by steady state analysis
[2] = target: Rat FC5-DIE3IR (llama | rat); assay: as above
[3] = target: T1, human FC5‐DIE3IR (Homo sapiens, chimera, glycosylated (about up to 50%)); assay: as above
T1 construct: llama VHH FC5 from its N-terminus to residue 101 (three CDR3 residues kept on the N-terminal side of the graft); human Nav1.7 alpha subunit, 70 residues of extracellular loop 3 of domain DI (DIE3IR), put in place of Ser102-Leu107 of the CDR3 of FC5; llama VHH FC5 from residue 108 to its C-terminus (four CDR3 residues kept on the C-terminal side of the graft); Two disulfide bonds in the grafted …

[4] = target: T2, rat FC5‐DIE3IR (Rattus norvegicus, UniProt O08562, chimera); assay: SPR; Biacore T200, 25 °C, HBS‐EP+ (10 mM HEPES pH 7.4, 150 mM NaCl, 3 mM EDTA, 0.05% P20); FC5‐DIE3IR and FC5 amine coupled (300–400 RU) on CM5; VHH DI‐D monomer fractions flowed at 312 nM to 5 µM, single cycle kinetics; KD by steady state analysis; conditions: both partners purified
T2 construct: llama VHH FC5 N-terminal part, as the first part of m2; rat Nav1.7 alpha subunit, the stretch equivalent to the human DIE3IR domain; llama VHH FC5 C-terminal part, as the last part of m2; source: cloned as the human one (pTT5); SEC purified (Superdex 75) for SPR

[5] = target: T3, mouse FC5‐DIE3IR (Mus musculus, UniProt Q62205, chimera); assay: as above; conditions: both partners purified
T3 construct: llama VHH FC5 N-terminal part, as the first part of m2; mouse Nav1.7 alpha subunit, the stretch equivalent to the human DIE3IR domain; llama VHH FC5 C-terminal part, as the last part of m2; source: cloned as the human one (pTT5); SEC purified (Superdex 75) for SPR

[6] = target: T1, human FC5‐DIE3IR; assay: as above; conditions: both partners purified
[7] = target: rat, mouse and human FC5‐DIE3IR; assay: as above
[8] = target: Mouse FC5-DIE3IR (llama | mouse); assay: SPR; Biacore T200, 25 °C, HBS-EP+ (10 mM HEPES pH 7.4, 150 mM NaCl, 3 mM EDTA, 0.05% P20); FC5-DIE3IR (human, mouse, rat) and FC5 amine coupled (300-400 RU) on CM5; SEC-purified monomeric VHH DI-D flowed over at 312 nM to 5 µM, single cycle kinetics; KD by steady state analysis; remark: listed apart in the source
[9] = target: T1, human FC5‐DIE3IR; assay: as above; remark: listed apart in the source
[10] = target: Mouse FC5-DIE3IR (llama | mouse); assay: as above; remark: listed apart in the source
[11] = target: Rat FC5-DIE3IR (llama | rat); assay: as above; remark: listed apart in the source
[12] = target: T1, human FC5‐DIE3IR; assay: as above; remark: listed apart in the source
[13] = target: mouse Nav1.7 (mouse (endogenous in CD-1 mice)) (UniProt Q62205)

B1: VHH DI‐D (VHH)
VHH: QVKLEESGGGLVQPGGSLKLSCVASGFAFSSAPMDWVRKAPGKDVEWLSTIESDQDHTIYYANSVKGRFTISRDDVQNILYLQMNDLKIEDTATYYCQKRGEKKTRGQGTQVTVSS
notes: CDR3 of VHH DI-D as printed in the discussion; Isolated from a naive llama, alpaca and camel phage library (LAC-M) by panning on FC5-DIE3IR; source: E. coli, purified by IMAC (gene synthesized and cloned by GenScript; pSJF2 expression vector); SEC-purified monomer fractions for SPR
In the case of B1, the Kd [1] is reported as 1700 nM, the Kd [2] is reported as 1590 nM and the Kd [3] is reported as 1720 nM. B1: binds [4]; binds [5]; binds [6]. For the same binder, the Kd [7] was 1560 to 1720 nM, the Kd [8] was 1680 nM and the Kd [9] was 1710 nM. For the same binder, the Kd [10] was 1660 nM, the Kd [11] was 1560 nM and the Kd [12] was 1700 nM. For the same binder, the time mice spend in pain behaviors, mouse OD1 model, VHH DI‐D (50 µg) pre‐mixed 30 min with FC5‐DIE3IR (200 µg): no reduction [13] was 312 s.
